Measured values: IntAct's records for PubMed 25910212

B1: F-box only protein 7 (Homo sapiens), Q9Y3I1 (parent)
chain: MRLRVRLLKRTWPLEVPETEPTLGHLRSHLRQSLLCTWGYSSNTRFTITLNYKDPLTGDEETLASYGIVSGDLICLILQDDIPAPNIPSSTDSEHSSLQNNEQPSLATSSNQTSMQDEQPSDSFQGQAAQSGVWNDDSMLGPSQNFEAESIQDNAHMAEGTGFYPSEPMLCSESVEGQVPHSLETLYQSADCSDANDALIVLIHLLMLESGYIPQGTEAKALSMPEKWKLSGVYKLQYMHPLCEGSSATLTCVPLGNLIVVNATLKINNEIRSVKRLQLLPESFICKEKLGENVANIYKDLQKLSRLFKDQLVYPLLAFTRQALNLPDVFGLVVLPLELKLRIFRLLDVRSVLSLSAVCRDLFTASNDPLLWRFLYLRDFRDNTVRVQDTDWKELYRKRHIQRKESPKGRFVMLLPSSTHTIPFYPNPLHPRPFPSSRLPPGIIGGEYDQRPTLPYVGDPISSLIPGPGETPSQFPPLRPRFDPVGPLPGPNPILPGRGGPNDRFPFRPSRGRPTDGRLSFM
B2: Progranulin (Homo sapiens), P28799 (parent)
chain: MWTLVSWVALTAGLVAGTRCPDGQFCPVACCLDPGGASYSCCRPLLDKWPTTLSRHLGGPCQVDAHCSAGHSCIFTVSGTSSCCPFPEAVACGDGHHCCPRGFHCSADGRSCFQRSGNNSVGAIQCPDSQFECPDFSTCCVMVDGSWGCCPMPQASCCEDRVHCCPHGAFCDLVHTRCITPTGTHPLAKKLPAQRTNRAVALSSSVMCPDARSRCPDGSTCCELPSGKYGCCPMPNATCCSDHLHCCPQDTVCDLIQSKCLSKENATTDLLTKLPAHTVGDVKCDMEVSCPDGYTCCRLQSGAWGCCPFTQAVCCEDHIHCCPAGFTCDTQKGTCEQGPHQVPWMEKAPAHLSLPDPQALKRDVPCDNVSSCPSSDTCCQLTSGEWGCCPIPEAVCCSDHQHCCPQGYTCVAEGQCQRGSEIVAGLEKMPARRASLSHPRDIGCDQHTSCPVGQTCCPSLGGSWACCQLPHAVCCEDRQHCCPAGYTCNVKARSCEKEVVSAQPATFLARSPHVGVKDVECGEGHFCHDNQTCCRDNRQGWACCPYRQGVCCADRRHCCPAGFRCAARGTKCLRREAPRWDAPLRDPALRQLL
B3: TERF1-interacting nuclear factor 2 (Homo sapiens), Q9BSI4 (parent)
chain: MATPLVAGPAALRFAAAASWQVVRGRCVEHFPRVLEFLRSLRAVAPGLVRYRHHERLCMGLKAKVVVELILQGRPWAQVLKALNHHFPESGPIVRDPKATKQDLRKILEAQETFYQQVKQLSEAPVDLASKLQELEQEYGEPFLAAMEKLLFEYLCQLEKALPTPQAQQLQDVLSWMQPGVSITSSLAWRQYGVDMGWLLPECSVTDSVNLAEPMEQNPPQQQRLALHNPLPKAKPGTHLPQGPSSRTHPEPLAGRHFNLAPLGRRRVQSQWASTRGGHKERPTVMLFPFRNLGSPTQVISKPESKEEHAIYTADLAMGTRAASTGKSKSPCQTLGGRALKENPVDLPATEQKENCLDCYMDPLRLSLLPPRARKPVCPPSLCSSVITIGDLVLDSDEEENGQGEGKESLENYQKTKFDTLIPTLCEYLPPSGHGAIPVSSCDCRDSSRPL
B4: U4/U6 small nuclear ribonucleoprotein Prp31 (Homo sapiens), Q8WWY3 (parent)
chain: MSLADELLADLEEAAEEEEGGSYGEEEEEPAIEDVQEETQLDLSGDSVKTIAKLWDSKMFAEIMMKIEEYISKQAKASEVMGPVEAAPEYRVIVDANNLTVEIENELNIIHKFIRDKYSKRFPELESLVPNALDYIRTVKELGNSLDKCKNNENLQQILTNATIMVVSVTASTTQGQQLSEEELERLEEACDMALELNASKHRIYEYVESRMSFIAPNLSIIIGASTAAKIMGVAGGLTNLSKMPACNIMLLGAQRKTLSGFSSTSVLPHTGYIYHSDIVQSLPPDLRRKAARLVAAKCTLAARVDSFHESTEGKVGYELKDEIERKFDKWQEPPPVKQVKPLPAPLDGQRKKRGGRRYRKMKERLGLTEIRKQANRMSFGEIEEDAYQEDLGFSLGHLGKSGSGRVRQTQVNEATKARISKTLQRTLQKQSVVYGGKSTIRDRSSGTASSVAFTPLQGLEIVNPQAAEKKVAEANQKYFSSMAEFLKVKGEKSGLMST
partner: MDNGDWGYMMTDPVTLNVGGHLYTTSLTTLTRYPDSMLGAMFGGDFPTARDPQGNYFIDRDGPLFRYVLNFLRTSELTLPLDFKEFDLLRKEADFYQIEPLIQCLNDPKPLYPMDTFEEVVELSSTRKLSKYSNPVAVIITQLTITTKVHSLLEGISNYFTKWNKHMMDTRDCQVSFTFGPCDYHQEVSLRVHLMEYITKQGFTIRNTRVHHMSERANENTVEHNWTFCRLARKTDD
B5: Neurogenin-3 (Homo sapiens), Q9Y4Z2 (parent)
chain: MTPQPSGAPTVQVTRETERSFPRASEDEVTCPTSAPPSPTRTRGNCAEAEEGGCRGAPRKLRARRGGRSRPKSELALSKQRRSRRKKANDRERNRMHNLNSALDALRGVLPTFPDDAKLTKIETLRFAHNYIWALTQTLRIADHSLYALEPPAPHCGELGSPGGSPGDWGSLYSPVSQAGSLSPAASLEERPGLLGATFSACLSPGSLAFSDFL
B6: Emerin (Homo sapiens), P50402 (parent)
chain: MDNYADLSDTELTTLLRRYNIPHGPVVGSTRRLYEKKIFEYETQRRRLSPPSSSAASSYSFSDLNSTRGDADMYDLPKKEDALLYQSKGYNDDYYEESYFTTRTYGEPESAGPSRAVRQSVTSFPDADAFHHQVHDDDLLSSSEEECKDRERPMYGRDSAYQSITHYRPVSASRSSLDLSYYPTSSSTSFMSSSSSSSSWLTRRAIRPENRAPGAGLGQDRQVPLWGQLLLFLVFVIVLFFIYHFMQAEEGNPF
partner: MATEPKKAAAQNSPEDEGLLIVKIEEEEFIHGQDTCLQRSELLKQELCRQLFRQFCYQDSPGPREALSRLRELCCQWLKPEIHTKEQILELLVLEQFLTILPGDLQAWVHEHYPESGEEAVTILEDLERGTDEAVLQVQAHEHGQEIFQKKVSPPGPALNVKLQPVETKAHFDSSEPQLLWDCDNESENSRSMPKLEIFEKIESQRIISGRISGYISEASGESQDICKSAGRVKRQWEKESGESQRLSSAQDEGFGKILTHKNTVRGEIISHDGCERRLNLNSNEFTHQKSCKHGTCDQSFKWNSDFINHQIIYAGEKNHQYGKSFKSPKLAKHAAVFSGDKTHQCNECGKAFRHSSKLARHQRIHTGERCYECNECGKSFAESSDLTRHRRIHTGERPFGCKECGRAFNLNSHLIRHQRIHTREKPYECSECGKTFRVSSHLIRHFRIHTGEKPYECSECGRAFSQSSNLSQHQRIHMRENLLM
B7: U4/U6 small nuclear ribonucleoprotein Prp31 (Homo sapiens), Q8WWY3 (parent)
chain: B4 chain

Variants of: B1
Conditions: with psa3_human PSMA3, P25788

effect of a mutation on the interaction	Variant
disrupting interaction strength	T22M

Variants of: B2
Conditions: with hxa1_human HOXA1, P49639
hxa1_human HOXA1, P49639, sequence (P49639 whole entry): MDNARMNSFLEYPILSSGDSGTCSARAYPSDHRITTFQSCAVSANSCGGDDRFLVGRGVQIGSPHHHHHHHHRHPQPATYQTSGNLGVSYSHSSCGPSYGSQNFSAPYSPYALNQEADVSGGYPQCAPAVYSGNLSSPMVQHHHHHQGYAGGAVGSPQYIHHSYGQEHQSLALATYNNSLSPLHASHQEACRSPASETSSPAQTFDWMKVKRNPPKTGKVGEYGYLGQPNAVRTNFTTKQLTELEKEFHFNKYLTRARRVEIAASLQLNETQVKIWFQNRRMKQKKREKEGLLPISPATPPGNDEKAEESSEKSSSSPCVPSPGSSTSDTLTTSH

effect of a mutation on the interaction	Variant
disrupting interaction strength	R432C
with no effect	P451L

Variants of: B2
Conditions: with ARFGAP1, Q8N6T3-3
ARFGAP1, Q8N6T3-3, sequence (Q8N6T3 other isoform, or with tags, fused parts or gaps): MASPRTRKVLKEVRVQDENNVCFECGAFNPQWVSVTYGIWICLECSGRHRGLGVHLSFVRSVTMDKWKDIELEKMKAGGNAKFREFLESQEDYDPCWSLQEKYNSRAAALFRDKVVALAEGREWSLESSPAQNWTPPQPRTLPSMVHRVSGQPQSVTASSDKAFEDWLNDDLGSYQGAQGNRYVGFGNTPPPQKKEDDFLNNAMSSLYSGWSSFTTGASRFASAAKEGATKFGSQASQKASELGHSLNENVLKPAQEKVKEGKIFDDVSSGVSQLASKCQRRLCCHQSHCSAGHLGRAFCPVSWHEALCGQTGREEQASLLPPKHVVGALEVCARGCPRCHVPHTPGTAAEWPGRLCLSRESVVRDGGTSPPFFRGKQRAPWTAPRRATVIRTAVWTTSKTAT

effect of a mutation on the interaction	Variant
disrupting interaction strength	R432C
disrupting interaction strength	P451L

Variants of: B2
Conditions: with sgta_human SGTA

effect of a mutation on the interaction	Variant
disrupting interaction strength	R432C
with no effect	P451L

Variants of: B2
Conditions: with otx1_human OTX1, P32242
otx1_human OTX1, P32242, sequence (P32242 whole entry): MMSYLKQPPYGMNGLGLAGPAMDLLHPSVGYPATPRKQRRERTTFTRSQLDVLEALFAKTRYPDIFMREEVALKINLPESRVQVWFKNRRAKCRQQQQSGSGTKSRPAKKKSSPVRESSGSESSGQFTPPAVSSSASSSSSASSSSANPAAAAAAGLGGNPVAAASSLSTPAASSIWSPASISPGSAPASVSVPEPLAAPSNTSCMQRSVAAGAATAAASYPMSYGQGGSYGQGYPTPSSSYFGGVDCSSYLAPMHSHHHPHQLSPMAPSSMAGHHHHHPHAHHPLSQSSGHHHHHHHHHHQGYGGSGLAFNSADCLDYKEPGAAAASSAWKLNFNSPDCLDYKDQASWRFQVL

effect of a mutation on the interaction	Variant
with no effect	R432C
with no effect	P451L

Variants of: B2
Conditions: with ccd33_human CCDC33, Q8N5R6
Target sequence in this assay (Q8N5R6 whole entry): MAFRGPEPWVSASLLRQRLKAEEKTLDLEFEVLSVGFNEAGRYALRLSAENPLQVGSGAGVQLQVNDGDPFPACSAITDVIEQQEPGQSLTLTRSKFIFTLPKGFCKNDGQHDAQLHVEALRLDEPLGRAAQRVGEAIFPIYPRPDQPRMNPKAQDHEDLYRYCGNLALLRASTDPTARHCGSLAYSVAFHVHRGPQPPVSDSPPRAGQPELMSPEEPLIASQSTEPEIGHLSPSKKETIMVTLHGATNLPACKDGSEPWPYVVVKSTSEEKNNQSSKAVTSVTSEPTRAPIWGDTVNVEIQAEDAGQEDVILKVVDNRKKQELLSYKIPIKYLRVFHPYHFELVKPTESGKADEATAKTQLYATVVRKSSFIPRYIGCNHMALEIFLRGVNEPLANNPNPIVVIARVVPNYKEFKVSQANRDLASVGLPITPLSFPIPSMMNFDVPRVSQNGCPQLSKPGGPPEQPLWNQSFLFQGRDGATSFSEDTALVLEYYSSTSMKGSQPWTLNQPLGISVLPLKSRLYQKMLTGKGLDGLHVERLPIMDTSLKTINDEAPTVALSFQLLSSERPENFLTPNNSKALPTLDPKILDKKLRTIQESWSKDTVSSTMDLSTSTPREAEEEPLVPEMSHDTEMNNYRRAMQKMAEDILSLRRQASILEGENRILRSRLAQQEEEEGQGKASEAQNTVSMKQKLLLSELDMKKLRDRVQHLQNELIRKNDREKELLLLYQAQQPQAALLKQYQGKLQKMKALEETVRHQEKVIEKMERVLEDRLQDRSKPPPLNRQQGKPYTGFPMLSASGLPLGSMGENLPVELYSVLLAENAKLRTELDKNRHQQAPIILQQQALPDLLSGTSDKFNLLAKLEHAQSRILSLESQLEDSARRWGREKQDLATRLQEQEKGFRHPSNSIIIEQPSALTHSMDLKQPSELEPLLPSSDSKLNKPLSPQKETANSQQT

effect of a mutation on the interaction	Variant
disrupting interaction strength	R432C
disrupting interaction strength	P451L

Variants of: B3
Conditions: with acd_human ACD

effect of a mutation on the interaction	Variant
with no effect	G237D
with no effect	S245Y
with no effect	E281K
disrupting interaction strength	P236S

Variants of: B4
Conditions: with kctd6_human KCTD6, Q8NC69

effect of a mutation on the interaction	Variant
with no effect	L107V

Variants of: B5
Conditions: with TCF12, Q99081-3
TCF12, Q99081-3, sequence (Q99081 other isoform, or with tags, fused parts or gaps): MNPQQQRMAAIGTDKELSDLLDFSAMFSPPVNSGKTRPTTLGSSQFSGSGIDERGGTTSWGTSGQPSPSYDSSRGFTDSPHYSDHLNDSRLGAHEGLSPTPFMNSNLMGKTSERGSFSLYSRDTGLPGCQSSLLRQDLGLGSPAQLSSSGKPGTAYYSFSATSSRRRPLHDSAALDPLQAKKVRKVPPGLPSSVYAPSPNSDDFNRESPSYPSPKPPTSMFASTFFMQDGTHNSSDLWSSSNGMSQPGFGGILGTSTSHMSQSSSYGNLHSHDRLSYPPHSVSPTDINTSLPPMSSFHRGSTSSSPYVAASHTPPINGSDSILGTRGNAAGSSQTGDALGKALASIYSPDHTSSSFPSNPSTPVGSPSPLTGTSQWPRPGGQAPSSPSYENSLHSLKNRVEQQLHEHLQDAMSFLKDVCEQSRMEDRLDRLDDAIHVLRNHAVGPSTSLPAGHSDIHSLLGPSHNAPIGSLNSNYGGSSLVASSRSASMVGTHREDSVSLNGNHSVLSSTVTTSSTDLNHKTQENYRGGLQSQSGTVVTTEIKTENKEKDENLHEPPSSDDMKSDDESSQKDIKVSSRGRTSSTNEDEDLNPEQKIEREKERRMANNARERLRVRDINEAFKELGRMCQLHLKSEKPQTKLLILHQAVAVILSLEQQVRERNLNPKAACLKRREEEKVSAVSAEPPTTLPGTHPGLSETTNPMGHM

effect of a mutation on the interaction	Variant
disrupting interaction strength	G167R
disrupting interaction strength	F199S

Variants of: B6
Conditions: with zn165_human ZNF165, P49910

effect of a mutation on the interaction	Variant
with no effect	S54F
with no effect	D72V
with no effect	P183H

Variants of: B7
Conditions: with pnma1_human PNMA1, Q8ND90

effect of a mutation on the interaction	Variant
with no effect	L107V

Variants of: B7
Conditions: with lzts2_human LZTS2, Q9BRK4

effect of a mutation on the interaction	Variant
with no effect	L107V

Variants of: B7
Conditions: with pak5_human PAK5, Q9P286

effect of a mutation on the interaction	Variant
with no effect	L107V

Variants of: B7
Conditions: with myome_human PDE4DIP

effect of a mutation on the interaction	Variant
with no effect	L107V

Variants of: B7
Conditions: with tsg10_human TSGA10, Q9BZW7
tsg10_human TSGA10, Q9BZW7, sequence (Q9BZW7 whole entry): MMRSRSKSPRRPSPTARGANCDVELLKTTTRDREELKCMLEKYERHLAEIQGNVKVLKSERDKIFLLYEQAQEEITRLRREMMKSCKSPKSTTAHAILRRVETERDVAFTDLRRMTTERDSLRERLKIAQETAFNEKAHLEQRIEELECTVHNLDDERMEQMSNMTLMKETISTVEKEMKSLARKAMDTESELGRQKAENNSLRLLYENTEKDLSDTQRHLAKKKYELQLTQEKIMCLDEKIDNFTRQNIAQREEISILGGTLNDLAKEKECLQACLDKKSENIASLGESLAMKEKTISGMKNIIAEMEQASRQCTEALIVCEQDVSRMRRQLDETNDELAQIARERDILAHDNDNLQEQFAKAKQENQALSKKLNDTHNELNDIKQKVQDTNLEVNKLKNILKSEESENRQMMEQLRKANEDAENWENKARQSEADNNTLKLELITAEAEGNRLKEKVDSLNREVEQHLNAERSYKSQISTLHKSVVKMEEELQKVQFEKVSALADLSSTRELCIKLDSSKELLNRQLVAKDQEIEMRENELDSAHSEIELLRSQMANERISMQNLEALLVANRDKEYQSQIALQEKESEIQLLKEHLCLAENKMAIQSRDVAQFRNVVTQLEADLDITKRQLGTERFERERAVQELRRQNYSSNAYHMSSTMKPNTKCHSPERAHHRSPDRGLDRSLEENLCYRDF

effect of a mutation on the interaction	Variant
with no effect	L107V

Variants of: B7
Conditions: with ppip1_human PSTPIP1, O43586

effect of a mutation on the interaction	Variant
with no effect	L107V

Variants of: B7
Conditions: with fbln4_human EFEMP2, O95967

effect of a mutation on the interaction	Variant
with no effect	L107V

Variants of: B7
Conditions: with ldoc1_human LDOC1, O95751
ldoc1_human LDOC1, O95751, sequence (O95751 whole entry): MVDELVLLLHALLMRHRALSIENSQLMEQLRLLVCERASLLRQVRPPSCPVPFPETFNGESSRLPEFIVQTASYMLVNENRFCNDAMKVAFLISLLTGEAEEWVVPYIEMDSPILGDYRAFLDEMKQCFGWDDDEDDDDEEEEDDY

effect of a mutation on the interaction	Variant
with no effect	L107V

Variants of: B7
Conditions: with znf24_human ZNF24, P17028
znf24_human ZNF24, P17028, sequence (P17028 whole entry): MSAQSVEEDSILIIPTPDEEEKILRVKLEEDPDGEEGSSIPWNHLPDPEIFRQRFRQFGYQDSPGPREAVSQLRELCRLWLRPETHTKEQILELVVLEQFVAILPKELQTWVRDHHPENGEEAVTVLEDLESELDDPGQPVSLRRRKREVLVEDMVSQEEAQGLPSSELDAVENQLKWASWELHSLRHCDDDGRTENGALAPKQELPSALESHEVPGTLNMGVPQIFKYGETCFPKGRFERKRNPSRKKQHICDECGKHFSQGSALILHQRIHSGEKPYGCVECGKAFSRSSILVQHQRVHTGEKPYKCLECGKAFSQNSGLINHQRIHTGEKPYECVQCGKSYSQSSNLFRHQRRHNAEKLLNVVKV

effect of a mutation on the interaction	Variant
with no effect	L107V

Variants of: B7
Conditions: with KRT15, P19012

effect of a mutation on the interaction	Variant
with no effect	L107V

Variants of: B7
Conditions: with rbmx_human RBMX

effect of a mutation on the interaction	Variant
with no effect	L107V

Variants of: B7
Conditions: with HNRNPK

effect of a mutation on the interaction	Variant
with no effect	L107V

Variants of: B7
Conditions: with mdfi_human MDFI

effect of a mutation on the interaction	Variant
with no effect	L107V

Variants of: B7
Conditions: with ZNF250, P15622-3

effect of a mutation on the interaction	Variant
with no effect	L107V

Variants of: B7
Conditions: with zn587_human ZNF587, Q96SQ5

effect of a mutation on the interaction	Variant
with no effect	L107V

Variants of: B7
Conditions: with KRT40, Q6A162

effect of a mutation on the interaction	Variant
with no effect	L107V

Variants of: B7
Conditions: with nt2na_human NOTCH2NLA

effect of a mutation on the interaction	Variant
with no effect	L107V

Variants of: B7
Conditions: with tfp11_human TFIP11, Q9UBB9

effect of a mutation on the interaction	Variant
with no effect	L107V

Variants of: B7
Conditions: with goga2_human GOLGA2, Q08379

effect of a mutation on the interaction	Variant
with no effect	L107V

Variants of: B7
Conditions: with jkip2_human JAKMIP2, Q96AA8

effect of a mutation on the interaction	Variant
with no effect	L107V

Variants of: B7
Conditions: with ccd33_human CCDC33, Q8N5R6
Target sequence in this assay (Q8N5R6 whole entry): as the sequence (Q8N5R6 whole entry) above

effect of a mutation on the interaction	Variant
with no effect	L107V

Variants of: B7
Conditions: with zn417_human ZNF417, Q8TAU3
zn417_human ZNF417, Q8TAU3, sequence (Q8TAU3 whole entry): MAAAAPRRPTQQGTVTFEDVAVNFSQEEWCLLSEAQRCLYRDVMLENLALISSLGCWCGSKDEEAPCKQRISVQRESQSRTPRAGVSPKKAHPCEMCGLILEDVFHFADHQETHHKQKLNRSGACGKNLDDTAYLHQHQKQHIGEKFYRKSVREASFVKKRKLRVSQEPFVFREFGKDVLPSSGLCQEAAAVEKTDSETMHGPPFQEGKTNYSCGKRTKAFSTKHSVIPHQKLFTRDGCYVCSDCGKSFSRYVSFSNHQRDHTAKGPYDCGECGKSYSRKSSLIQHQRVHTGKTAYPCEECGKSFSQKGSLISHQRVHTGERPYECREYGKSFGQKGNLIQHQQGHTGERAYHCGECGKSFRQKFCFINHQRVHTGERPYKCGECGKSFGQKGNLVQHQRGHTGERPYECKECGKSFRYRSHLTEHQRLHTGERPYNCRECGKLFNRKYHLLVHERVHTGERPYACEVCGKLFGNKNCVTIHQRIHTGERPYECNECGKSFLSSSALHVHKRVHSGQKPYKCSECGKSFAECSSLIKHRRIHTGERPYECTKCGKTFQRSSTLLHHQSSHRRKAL

effect of a mutation on the interaction	Variant
with no effect	L107V

Variants of: B7
Conditions: with MTUS2, Q5JR59-3
MTUS2, Q5JR59-3, sequence (Q5JR59 other isoform, or with tags, fused parts or gaps): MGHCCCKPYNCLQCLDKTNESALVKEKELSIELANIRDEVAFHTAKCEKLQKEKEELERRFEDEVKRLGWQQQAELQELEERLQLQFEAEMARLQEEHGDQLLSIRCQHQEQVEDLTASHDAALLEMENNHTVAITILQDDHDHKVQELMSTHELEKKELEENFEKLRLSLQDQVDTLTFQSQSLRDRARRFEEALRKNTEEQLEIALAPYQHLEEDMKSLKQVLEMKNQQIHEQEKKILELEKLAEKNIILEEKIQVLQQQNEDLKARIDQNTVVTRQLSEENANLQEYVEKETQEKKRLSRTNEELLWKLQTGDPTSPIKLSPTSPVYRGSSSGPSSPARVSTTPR

effect of a mutation on the interaction	Variant
with no effect	L107V
